Measured values reported in US20260132182A1 (published 2026).
Like-named read-outs stand apart in the source and are kept apart here. Starred links: 1 amine or outer side, 2 acyl side, 3 side chain; linkers in the order of their positions; H or OH if unused. Non-standard residues stand in square brackets, D forms with d. Groups on a side chain read outwards from the residue. *: point of attachment. C18 diacid = O=C(O)CCCCCCCCCCCCCCCCC(=O)*; γGlu = O=C(O)[C@H](CCC(=O)[*:2])N[*:1]; AEEA = NCCOCCOCC(=O)O; Aib = CC(C)(N)C(=O)O

Tests used:
Assay in all cases: cell-based or functional assay
[1] = molecular target: T1, human amylin-3 (a) receptor (human, UniProt P30988 25-474; O60896 24-148)
T1 sequence (looked up) 1: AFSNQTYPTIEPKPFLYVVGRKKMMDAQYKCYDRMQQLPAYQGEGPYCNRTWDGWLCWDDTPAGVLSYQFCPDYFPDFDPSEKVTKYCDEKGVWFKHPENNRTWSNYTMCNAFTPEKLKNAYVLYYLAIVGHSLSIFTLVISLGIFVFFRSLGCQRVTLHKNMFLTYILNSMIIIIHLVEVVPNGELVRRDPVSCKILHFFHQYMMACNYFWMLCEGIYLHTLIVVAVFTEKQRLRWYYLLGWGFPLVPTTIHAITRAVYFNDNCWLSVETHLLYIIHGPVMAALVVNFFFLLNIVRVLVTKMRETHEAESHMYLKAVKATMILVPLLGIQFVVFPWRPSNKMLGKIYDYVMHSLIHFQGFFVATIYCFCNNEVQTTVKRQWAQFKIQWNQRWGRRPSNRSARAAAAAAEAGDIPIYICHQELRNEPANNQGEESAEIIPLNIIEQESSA
T1 sequence (looked up) 2: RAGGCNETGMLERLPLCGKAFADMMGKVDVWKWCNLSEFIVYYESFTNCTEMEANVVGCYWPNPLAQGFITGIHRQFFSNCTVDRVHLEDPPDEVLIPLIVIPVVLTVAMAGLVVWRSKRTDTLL

human GLP-1 receptor [2] = molecular target: T2, human GLP-1 receptor (human, UniProt P43220 24-463)
[3] = molecular target: T1, human amylin-3 (a) receptor; remark: listed apart in the source
human GLP-1 receptor [4] = molecular target: T2, human GLP-1 receptor; remark: listed apart in the source

Human AmyR3 potency [EC50 (pM)] [1]: 11.5 pM
Human GLP-1R potency [EC50 (pM)] (human GLP-1 receptor [2]): 3 pM
Human AmyR3 potency [EC50 (pM)] [3]: 11.5 pM
Human GLP-1R potency [EC50 (pM)] (human GLP-1 receptor [4]): 3 pM
B1: Compound 0111 (peptide)
peptide: H[Aib]EGTFTSDVSSYLEEQAAREFIAWLVRGRK([AEEA-AEEA-γGlu-C18 diacid])GGGGEASELSTAALGRLSAELHELATLPRTETGSGSP-NH2
